# Laboratory results taken from article PMC8876964 (Pharmaceuticals, 2022).
# Read-outs that look alike come from different tables or passages of the source.
# Columns and labels:
# [1] = tested on: serum albumin; details: cited from earlier work
# [2] = PET/CT imaging of BxPC-3 tumor-bearing mice; assay type: in vivo; details: athymic nude, mouse, iv, 3.7 MBq, total radioactivity
# Description: For blocking study, excess of unlabeled peptides was administered 1–2 min before radiotracer injection. The PET scans were acquired for 20 min on an Inveon small animal PET/CT scanner (Siemens Medical Solutions, Malvern, PA, USA). Static images were reconstructed with the maximum a posteriori (MAP) reconstruction algorithm and corrected for decay. Image analysis was performed using the Inveon Research Workstation image display software (Siemens). Regions of interest (ROI) were selected based on co-registered anatomical CT images, and the average or maximum standard uptake value (SUV) was calculated as the mean or maximum regional radioactivity concentration (nCi/cc) x animal weight (g)/decay-corrected amount of injected dose (nCi).
# [3] = Biodistribution in normal CD-1 mice; assay type: in vivo; details: mouse, iv, total radioactivity, 0.37 MBq i.v., n = 4–5, mean ± SD
# Description: The comparison of non-albumin binding and albumin binding peptides were evaluated in CD-1 mice at 1, 4, 24, and 48 h. ^177Lu-labeled peptides were prepared at the specific activity of 10 MBq/nmol. Mice (n = 4–5) were intravenously injected with 0.37 MBq (10 µCi) of respective radioligands diluted in 100 μL saline and sacrificed at specified time points. Selected organs were collected, weighed, and counted for activity. The results were reported as the percentage of the injected radioactivity per gram of tissue mass (% ID/g) and the radioactivity was calibrated using a known standard.
# [4] = Biodistribution in mice bearing BxPC-3 tumor xenografts; assay type: in vivo; details: athymic nude, mouse, iv, total radioactivity, BxPC-3 tumor mice, 0.37 MBq i.v.; for tissue uptake at 1 h: 1 h p.i.; for tissue uptake at 48 h: 48 h p.i.
# Description: Animals were supplied from Charles River Laboratories (Wilmington, MA, USA), and were handled in compliance with the Guidelines for Care and Use of Research Animals established by the Division of Comparative Medicine and the Animal Studies Committee of Washington University School of Medicine. Biodistribution studies were conducted in athymic nude mice bearing subcutaneous BxPC-3 tumors. Tumors were implanted on the right flank with 5 × 10^6 cells about 4 weeks before the performance of the experiments. Biodistribution studies were performed when the tumors reached approximately 5–7 mm in diameter. […] Tissues of interest (blood, lung, liver, spleen, kidney, muscle, heart, bone, and tumor) were collected and weighed, and the radioactivity was measured using a gamma counter. The results were expressed as the percentage of injected dose per gram of tissue (%ID/g).
# [5] = tested on: BxPC-3 tumors; experiment: Therapy studies in BxPC-3 tumor-bearing mice; assay type: in vivo, athymic nude mice
# Description: Therapy studies were conducted in athymic nude mice bearing BxPC-3 tumors when the tumor volume reached about 100 mm^3. […] Tumor volumes and body weights were monitored three times a week. Individual tumor size was calculated using the formula (length × width × width)/2. The mice were euthanized when the tumor reached 1500 mm^3, ulceration of >4 mm was present, or significant stress due to weight loss. […] The doses were administered via tail vein and tumor size and mouse weights were recorded three times a week. Tumor volumes were plotted versus time to determine tumor growth inhibition.
# [6] = tested on: DX3puroβ6 tumor; details: mouse, in vivo; cited from earlier work
# [7] = blood, n = 4–5, mean ± SD, read-out: blood uptake
# [8] = n = 4–5, mean ± SD, read-out: tumor uptake
compound,measurement,setting,value
O=C(O)CCCc1ccc(I)cc1 [4-(p-iodophenyl)butyric acid],non-covalent binding with serum albumin,[1],micromolar range
Cc1cc(-c2ccc(/N=N/c3ccc4c(S(=O)(=O)O)cc(S(=O)(=O)O)c(N)c4c3O)c(C)c2)ccc1/N=N/c1ccc2c(S(=O)(=O)O)cc(S(=O)(=O)O)c(N)c2c1O [Evans Blue],IC50 of reversible binding to serum albumin,[1],micromolar range
"CC(C)C[C@H](NC(=O)[C@H](CC(=O)O)NC(=O)CNC(=O)[C@H](CCCNC(=N)N)NC(=O)[C@H](CC(C)C)NC(=O)[C@H](CC(N)=O)NC(=O)[C@@H]1CCCN1C(=O)[C@@H](NC(=O)[C@H](C)NC(=O)[C@H](CC(N)=O)NC(=O)CCOCCOCCOCCOCCOCCOCCOCCOCCOCCOCCOCCOCCOCCOCCOCCOCCOCCOCCOCCOCCOCCOCCOCCOCCOCCOCCOCCOCCNC(=O)CN1CCN(CC(=O)O)CCN(CC(=O)O)CCN(CC(=O)O)CC1)C(C)C)C(=O)N[C@@H](CCC(N)=O)C(=O)N[C@H](C(=O)N[C@@H](CC(C)C)C(=O)N[C@@H](C)C(=O)N[C@@H](CCC(N)=O)C(=O)N[C@@H](CCCCN)C(=O)N[C@H](C(=O)N[C@@H](C)C(=O)N[C@@H](CCCNC(=N)N)C(=O)N[C@H](C(=O)NCCOCCOCCOCCOCCOCCOCCOCCOCCOCCOCCOCCOCCOCCOCCOCCOCCOCCOCCOCCOCCOCCOCCOCCOCCOCCOCCOCCOCCC(N)=O)[C@@H](C)O)C(C)C)C(C)C [[^68Ga]Ga-DOTA-(PEG28)2-A20FMDV2, metal not drawn]",SUV at 1 h,"[2]; mice receiving blocking agent (excess unlabeled peptide 1–2 min before), 1 h after 3.7 MBq i.v., n = 3, read-out: tumor SUVmax",1.71 ± 0.04 SUV
same,SUV at 1 h,"[2]; mice receiving blocking agent (excess unlabeled peptide 1–2 min before), 1 h after 3.7 MBq i.v., n = 3, read-out: tumor SUVmean",1.22 ± 0.12 SUV
same,SUV at 1 h,"[2]; non-block mice, 1 h after i.v. injection of 3.7 MBq, n = 3, read-out: tumor SUVmax",3.85 ± 1.06 SUV
same,SUV at 1 h,"[2]; non-block mice, 1 h after i.v. injection of 3.7 MBq, n = 3, read-out: tumor SUVmean",2.77 ± 0.38 SUV
"CC(C)C[C@H](NC(=O)[C@H](CC(=O)O)NC(=O)CNC(=O)[C@H](CCCNC(=N)N)NC(=O)[C@H](CC(C)C)NC(=O)[C@H](CC(N)=O)NC(=O)[C@@H]1CCCN1C(=O)[C@@H](NC(=O)[C@H](C)NC(=O)[C@H](CC(N)=O)NC(=O)CCOCCOCCOCCOCCOCCOCCOCCOCCOCCOCCOCCOCCOCCOCCOCCOCCOCCOCCOCCOCCOCCOCCOCCOCCOCCOCCOCCOCCNC(=O)CCSC1CC(=O)N(CCC(=O)NCCNC(=O)[C@H](CCCCNC(=O)CN2CCN(CC(=O)O)CCN(CC(=O)O)CCN(CC(=O)O)CC2)NC(=O)c2ccc(-c3ccc(N=Nc4ccc5c(S(=O)(=O)O)cc(S(=O)(=O)O)c(N)c5c4O)cc3)cc2)C1=O)C(C)C)C(=O)N[C@@H](CCC(N)=O)C(=O)N[C@H](C(=O)N[C@@H](CC(C)C)C(=O)N[C@@H](C)C(=O)N[C@@H](CCC(N)=O)C(=O)N[C@@H](CCCCN)C(=O)N[C@H](C(=O)N[C@@H](C)C(=O)N[C@@H](CCCNC(=N)N)C(=O)N[C@H](C(=O)NCCOCCOCCOCCOCCOCCOCCOCCOCCOCCOCCOCCOCCOCCOCCOCCOCCOCCOCCOCCOCCOCCOCCOCCOCCOCCOCCOCCOCCC(N)=O)[C@@H](C)O)C(C)C)C(C)C (stereo partly shown) [[^177Lu]Lu-EB-DOTA-(PEG28)2-A20FMDV2, metal not drawn]",tissue uptake at 1 h,[3]; blood,5.36 ± 1.06 %ID/g
same,tissue uptake at 48 h,"[3]; blood, 48 h p.i., read-out: blood uptake",0.41 ± 0.03 %ID/g
same,tissue uptake at 48 h,"[3]; kidney, 48 h, read-out: kidney uptake",44.3 ± 5.13 %ID/g
same,tissue uptake at 1 h,[4]; [7],4.8 ± 0.69 %ID/g
same,tissue uptake at 4 h,"[4]; blood, 4 h, n = 4–5, mean ± SD",1.23 ± 0.3 %ID/g
same,tissue uptake at 48 h,[4]; [7],0.28 ± 0.01 %ID/g
same,tissue uptake at 1 h,[4]; [8],5.2 ± 1.02 %ID/g
same,tissue uptake at 48 h,[4]; [8],4.29 ± 0.78 %ID/g
same,tissue uptake,"[4]; lung, liver, spleen, muscle, heart, bone, all time points (1, 4, 24, 48 h), read-out: uptake in normal organs such as lung, liver, spleen, muscle, heart, and bone",< 4 %ID/g
same,tumor volumes in comparison to the control group,"[5]; single dose of 37 MBq, BxPC-3 tumor-bearing mice, n = 8, p < 0.001",significantly reduced
same,mortality,"[5]; single dose of 37 MBq, two weeks after radiotracer injection",death of all mice
same,% intact in human serum,,> 90%
CC(C)C[C@H](NC(=O)[C@H](CC(=O)O)NC(=O)CNC(=O)[C@H](CCCNC(=N)N)NC(=O)[C@H](CC(C)C)NC(=O)[C@H](CC(N)=O)NC(=O)[C@@H]1CCCN1C(=O)[C@@H](NC(=O)[C@H](C)NC(=O)[C@H](CC(N)=O)NC(=O)CCOCCOCCOCCOCCOCCOCCOCCOCCOCCOCCOCCOCCOCCOCCOCCOCCOCCOCCOCCOCCOCCOCCOCCOCCOCCOCCOCCOCCNC(=O)CN1CCN(CC(=O)O)CCN(CC(=O)O)CCN(CC(=O)O)CC1)C(C)C)C(=O)N[C@@H](CCC(N)=O)C(=O)N[C@H](C(=O)N[C@@H](CC(C)C)C(=O)N[C@@H](C)C(=O)N[C@@H](CCC(N)=O)C(=O)N[C@@H](CCCCN)C(=O)N[C@H](C(=O)N[C@@H](C)C(=O)N[C@@H](CCCNC(=N)N)C(=O)N[C@H](C(=O)NCCOCCOCCOCCOCCOCCOCCOCCOCCOCCOCCOCCOCCOCCOCCOCCOCCOCCOCCOCCOCCOCCOCCOCCOCCOCCOCCOCCOCCC(N)=O)[C@@H](C)O)C(C)C)C(C)C [metal not drawn],tissue uptake at 1 h,[3]; blood,0.11 ± 0.04 %ID/g
same,body weight change,"[5]; 27.8 MBq, n = 8, during the course of the study",no significant weight loss
same,tumor inhibition in comparison to control group,"[5]; 27.8 MBq, n = 8, until day 23 (p < 0.001 for the IBA peptide)",did not show significant tumor growth inhibition
NAVPNLRGDLQVLAQKVART [A20FMDV2],tumor uptake,[6],0.66 ± 0.09 % ID/g
